Experiments:
[1] = biological target: T1, dag kinase iota peptide NRKKKRTSFKRKA (SEQ ID NO:115) (not fully specified)
T1 chain: NRKKKRTSFKRKA

[2] = biological target: T2, AKAP12 peptide AGWRKKTSFRKPKED (SEQ ID NO:99) (not fully specified)
T2 chain: AGWRKKTSFRKPKED

[3] = biological target: T3, PLEC1 peptide KRERKTSSKSSVRKRR (SEQ ID NO:81) (not fully specified)
T3 chain: KRERKTSSKSSVRKRR

[4] = biological target: T4, DGKI peptide NRKKKRTSFKRKA (SEQ ID NO:79) (not fully specified)
T4 chain: NRKKKRTSFKRKA

[5] = biological target: T5, NMDAR1 peptide RAITSTLASSFKRRR (SEQ ID NO:122) (not fully specified)
T5 chain: RAITSTLASSFKRRR

[6] = biological target: T6, M1 muscarinic receptor peptide RWDKRRWRKIPKRPGSVHRT (SEQ ID NO:155) (not fully specified)
T6 chain: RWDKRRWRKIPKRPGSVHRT

[7] = biological target: T7, MGC2941 peptide RPTPGDGEKRSRIKKSKKRK (SEQ ID NO:139) (not fully specified)
T7 chain: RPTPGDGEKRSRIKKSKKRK

[8] = biological target: T8, ubiquitin specific protease 8 peptide RARRDSLKKIEIW (SEQ ID NO:136) (not fully specified)
T8 chain: RARRDSLKKIEIW

[9] = biological target: T9, dag kinase zeta peptide RPQNTLKASKKKKRASFKRK (SEQ ID NO:118) (not fully specified)
T9 chain: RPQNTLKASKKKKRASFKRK

[10] = biological target: T10, MARCKS peptide KKKKKRFSFKKSFKL (SEQ ID NO:80) (not fully specified)
T10 chain: KKKKKRFSFKKSFKL

[11] = biological target: T11, ADD2 peptide KKKFRTPSFLKKSKK (SEQ ID NO:95) (not fully specified)
T11 chain: KKKFRTPSFLKKSKK

[12] = biological target: T12, NIK peptide WKGKRRSKARKKRK (SEQ ID NO:131) (not fully specified)
T12 chain: WKGKRRSKARKKRK

[13] = biological target: T13, ARHGAP6 peptide SAQITIPKDGQKRKKSLRKK (SEQ ID NO:156) (not fully specified)
T13 chain: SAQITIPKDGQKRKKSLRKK

[14] = biological target: T14, Myt1 kinase peptide PPRTPGWHQLQPRRVSFRGE (SEQ ID NO:163) (not fully specified)
T14 chain: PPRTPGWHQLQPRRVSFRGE

[15] = biological target: T15, PARIS1 peptide RELEQLKAEYLERRASRRRA (SEQ ID NO:148) (not fully specified)
T15 chain: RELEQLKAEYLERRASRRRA

[16] = biological target: T16, NF1 peptide SQVQKQRSAGSFKRNSIKKI (SEQ ID NO:127) (not fully specified)
T16 chain: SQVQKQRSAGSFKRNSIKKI

[17] = biological target: T17, NEURL peptide ALRRPSLRREADD (SEQ ID NO:105) (not fully specified)
T17 chain: ALRRPSLRREADD

[18] = biological target: T18, DGKZ peptide KKKKRASFKRKSSKKG (SEQ ID NO:77) (not fully specified)
T18 chain: KKKKRASFKRKSSKKG

[19] = biological target: T19, MAP3K14 peptide WKGKRRSKARKKRK (SEQ ID NO:100) (not fully specified)
T19 chain: WKGKRRSKARKKRK

[20] = biological target: T20, PSCDBP peptide LSSMFGTLPRKSRKGSVRKQ (SEQ ID NO:144) (not fully specified)
T20 chain: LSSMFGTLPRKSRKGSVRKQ

[21] = biological target: T21, PARIS1 peptide EYLERRASRRRAV (SEQ ID NO:138) (not fully specified)
T21 chain: EYLERRASRRRAV

[22] = biological target: T22, PSCD2 peptide AARKKRISVKKKQEQ (SEQ ID NO:93) (not fully specified)
T22 chain: AARKKRISVKKKQEQ

[23] = biological target: T23, SMARCA5 peptide MAQIERGEARIQRRISIKKA (SEQ ID NO:166) (not fully specified)
T23 chain: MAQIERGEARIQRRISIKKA

[24] = biological target: T24, fit1 peptide VQMTWSYPDEKNKRASVRRR (SEQ ID NO:158) (not fully specified)
T24 chain: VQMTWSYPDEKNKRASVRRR

[25] = biological target: T25, … peptide KKPFKLSGLSFKRNRKE (SEQ ID NO:88) (not fully specified)
T25 chain: KKPFKLSGLSFKRNRKE

[26] = biological target: T26, kinesin 3C peptide LEKRGMLGKRPRRKSSRRKK (SEQ ID NO:133) (not fully specified)
T26 chain: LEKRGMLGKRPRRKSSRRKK

[27] = biological target: T27, MARCKS peptide KKRFSFKKSFKLSGFSFKKN (SEQ ID NO:123) (not fully specified)
T27 chain: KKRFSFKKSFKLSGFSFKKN

[28] = biological target: T28, ARHGAP4 peptide AGPLRKSSLKKGGRL (SEQ ID NO:98) (not fully specified)
T28 chain: AGPLRKSSLKKGGRL

[29] = biological target: T29, MLK3 peptide QQVDRERPHVRRRRGTFKRS (SEQ ID NO:128) (not fully specified)
T29 chain: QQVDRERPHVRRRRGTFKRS

[30] = biological target: T30, PLEK peptide KFARKSTRRSIRLPE (SEQ ID NO:78) (not fully specified)
T30 chain: KFARKSTRRSIRLPE

[31] = biological target: T31, beta adducin peptide KKKFRTPSFLKKSKK (SEQ ID NO:135) (not fully specified)
T31 chain: KKKFRTPSFLKKSKK

B1: PKC-epsilon (protein)
chain: MVVFNGLLKIKICEAVSLKPTAWSLRHAVGPRPQTFLLDPYIALNVDDSRIGQTATKQKTNSPAWHDEFVTDVCNGRKIELAVFHDAPIGYDDFVANCTIQFEELLQNGSRHFEDWIDLEPEGRVYVIIDLSGSSGEAPKDNEERVFRERMRPRKRQGAVRRRVHQVNGHKFMATYLRQPTYCSHCRDFIWGVIGKQGYQCQVCTCVVHKRCHELIITKCAGLKKQETPDQVGSQRFSVNMPHKFGIHNYKVPTFCDHCGSLLWGLLRQGLQCKVCKMNVHRRCETNVAPNCGVDARGIAKVLADLGVTPDKITNSGQRRKKLIAGAESPQPASGSSPSEEDRSKSAPTSPCDQEIKELENNIRKALSFDNRGEEHRAASSPDGQLMSPGENGEVRQGQAKRLGLDEFNFIKVLGKGSFGKVMLAELKGKDEVYAVKVLKKDVILQDDDVDCTMTEKRILALARKHPYLTQLYCCFQTKDRLFFVMEYVNGGDLMFQIQRSRKFDEPRSRFYAAEVTSALMFLHQHGVIYRDLKLDNILLDAEGHCKLADFGMCKEGILNGVTTTTFCGTPDYIAPEILQELEYGPSVDWWALGVLMYEMMAGQPPFEADNEDDLFESILHDDVLYPVWLSKEAVSILKAFMTKNPHKRLGCVASQNGEDAIKQHPFFKEIDWVLLEQKKIKPPFKPRIKTKRDVNNFDQDFTREEPVLTLVDEAIVKQINQEEFKGFSYFGEDLMP
in vitro phosphorylation, 1 uM peptide (% of best substrate) [1]: 91 | in vitro phosphorylation (% of best substrate) [2]: 27 | in vitro phosphorylation (% of best substrate) [3]: 59 | in vitro phosphorylation (% of best substrate) [4]: 92 | in vitro phosphorylation, 1 uM peptide (% of best substrate) [5]: 72 | in vitro phosphorylation, 1 uM peptide (% of best substrate) [6]: 26 | in vitro phosphorylation, 1 uM peptide (% of best substrate) [7]: 24 | in vitro phosphorylation, 1 uM peptide (% of best substrate) [8]: 33 | in vitro phosphorylation, 1 uM peptide (% of best substrate) [9]: 89 | in vitro phosphorylation (% of best substrate) [10]: 71 | in vitro phosphorylation (% of best substrate) [11]: 31 | in vitro phosphorylation, 1 uM peptide (% of best substrate) [12]: 43 | in vitro phosphorylation, 1 uM peptide (% of best substrate) [13]: 18 | in vitro phosphorylation, 1 uM peptide (% of best substrate) [14]: 14 | in vitro phosphorylation, 1 uM peptide (% of best substrate) [15]: 33 | in vitro phosphorylation, 1 uM peptide (% of best substrate) [16]: 32 | in vitro phosphorylation (% of best substrate) [17]: 29 | in vitro phosphorylation (% of best substrate) [18]: 71 | in vitro phosphorylation (% of best substrate) [19]: 13 | in vitro phosphorylation, 1 uM peptide (% of best substrate) [20]: 24 | in vitro phosphorylation, 1 uM peptide (% of best substrate) [21]: 27 | in vitro phosphorylation (% of best substrate) [22]: 40 | in vitro phosphorylation, 1 uM peptide (% of best substrate) [23]: 10 | in vitro phosphorylation, 1 uM peptide (% of best substrate) [24]: 11 | in vitro phosphorylation (% of best substrate) [25]: 44 | in vitro phosphorylation, 1 uM peptide (% of best substrate) [26]: 31 | in vitro phosphorylation, 1 uM peptide (% of best substrate) [27]: 67 | in vitro phosphorylation (% of best substrate) [28]: 34 | in vitro phosphorylation, 1 uM peptide (% of best substrate) [29]: 32 | in vitro phosphorylation (% of best substrate) [30]: 84 | in vitro phosphorylation, 1 uM peptide (% of best substrate) [31]: 27

B2: PKC-theta (protein)
chain: MSPFLRIGLSNFDCGSCQSCQGEAVNPYCAVLVKEYVESENGQMYIQKKPTMYPPWDSTFDAHINKGRVMQIIVKGKNVDLISETTVELYSLAERCRKNNGKTEIWLELKPQGRMLMNARYFLEMSDTKDMNEFETEGFFALHQRRGAIKQAKVHHVKCHEFTATFFPQPTFCSVCHEFVWGLNKQGYQCRQCNAAIHKKCIDKVIAKCTGSAINSRETMFHKERFKIDMPHRFKVYNYKSPTFCEHCGTLLWGLARQGLKCDACGMNVHHRCQTKVANLCGINQKLMAEALAMIESTQQARCLRDTEQIFREGPVEIGLPCSIKNEARPPCLPTPGKREPQGISWESPLDEVDKMCHLPEPELNKERPSLQIKLKIEDFILHKMLGKGSFGKVFLAEFKKTNQFFAIKALKKDVVLMDDDVECTMVEKRVLSLAWEHPFLTHMFCTFQTKENLFFVMEYLNGGDLMYHIQSCHKFDLSRATFYAAEIILGLQFLHSKGIVYRDLKLDNILLDKDGHIKIADFGMCKENMLGDAKTNTFCGTPDYIAPEILLGQKYNHSVDWWSFGVLLYEMLIGQSPFHGQDEEELFHSIRMDNPFYPRWLEKEAKDLLVKLFVREPEKRLGVRGDIRQHPLFREINWEELERKEIDPPFRPKVKSPFDCSNFDKEFLNEKPRLSFADRALINSMDQNMFRNFSFMNPGMERLIS
in vitro phosphorylation, 1 uM peptide (% of best substrate) [1]: 89 | in vitro phosphorylation, 10 uM peptide (% of best substrate) [1]: 77 | in vitro phosphorylation (% of best substrate) [2]: 25 | in vitro phosphorylation (% of best substrate) [3]: 46 | in vitro phosphorylation (% of best substrate) [4]: 33 | in vitro phosphorylation, 1 uM peptide (% of best substrate) [5]: 66 | in vitro phosphorylation, 10 uM peptide (% of best substrate) [5]: 42 | in vitro phosphorylation, 1 uM peptide (% of best substrate) [6]: 23 | in vitro phosphorylation, 10 uM peptide (% of best substrate) [6]: 26 | in vitro phosphorylation, 1 uM peptide (% of best substrate) [7]: 31 | in vitro phosphorylation, 10 uM peptide (% of best substrate) [7]: 17 | in vitro phosphorylation, 1 uM peptide (% of best substrate) [8]: 42 | in vitro phosphorylation, 10 uM peptide (% of best substrate) [8]: 28 | in vitro phosphorylation, 1 uM peptide (% of best substrate) [9]: 67 | in vitro phosphorylation, 10 uM peptide (% of best substrate) [9]: 52 | in vitro phosphorylation (% of best substrate) [10]: 63 | in vitro phosphorylation (% of best substrate) [11]: 42 | in vitro phosphorylation, 1 uM peptide (% of best substrate) [12]: 53 | in vitro phosphorylation, 10 uM peptide (% of best substrate) [12]: 35 | in vitro phosphorylation, 1 uM peptide (% of best substrate) [13]: 18 | in vitro phosphorylation, 10 uM peptide (% of best substrate) [13]: 23 | in vitro phosphorylation, 1 uM peptide (% of best substrate) [14]: 14 | in vitro phosphorylation, 10 uM peptide (% of best substrate) [14]: 11 | in vitro phosphorylation, 1 uM peptide (% of best substrate) [15]: 34 | in vitro phosphorylation, 10 uM peptide (% of best substrate) [15]: 34 | in vitro phosphorylation, 1 uM peptide (% of best substrate) [16]: 45 | in vitro phosphorylation, 10 uM peptide (% of best substrate) [16]: 58 | in vitro phosphorylation (% of best substrate) [17]: 21 | in vitro phosphorylation (% of best substrate) [18]: 74 | in vitro phosphorylation (% of best substrate) [19]: 56 | in vitro phosphorylation, 1 uM peptide (% of best substrate) [20]: 35 | in vitro phosphorylation, 10 uM peptide (% of best substrate) [20]: 22 | in vitro phosphorylation, 1 uM peptide (% of best substrate) [21]: 34 | in vitro phosphorylation, 10 uM peptide (% of best substrate) [21]: 39 | in vitro phosphorylation (% of best substrate) [22]: 40 | in vitro phosphorylation, 1 uM peptide (% of best substrate) [23]: 13 | in vitro phosphorylation, 10 uM peptide (% of best substrate) [23]: 13 | in vitro phosphorylation, 1 uM peptide (% of best substrate) [24]: 19 | in vitro phosphorylation, 10 uM peptide (% of best substrate) [24]: 23 | in vitro phosphorylation (% of best substrate) [25]: 38 | in vitro phosphorylation, 1 uM peptide (% of best substrate) [26]: 46 | in vitro phosphorylation, 10 uM peptide (% of best substrate) [26]: 53 | in vitro phosphorylation, 1 uM peptide (% of best substrate) [27]: 47 | in vitro phosphorylation, 10 uM peptide (% of best substrate) [27]: 32 | in vitro phosphorylation (% of best substrate) [28]: 22 | in vitro phosphorylation, 1 uM peptide (% of best substrate) [29]: 41 | in vitro phosphorylation, 10 uM peptide (% of best substrate) [29]: 59 | in vitro phosphorylation (% of best substrate) [30]: 47 | in vitro phosphorylation, 1 uM peptide (% of best substrate) [31]: 30 | in vitro phosphorylation, 10 uM peptide (% of best substrate) [31]: 36

Source: US20050064507
